Experimental data reported in PMC4728340, “Structure of the polyisoprenyl-phosphate glycosyltransferase GtrB and insights into the mechanism of catalysis” (Nature Communications, 2016).

Biological target: the molecule itself
Experiment: crystal structure; purified protein in n-decyl-beta-D-maltopyranoside (DM); sitting drop vapour diffusion at 22 °C, 16-18% PEG600, 0.12 M Tris/HCl pH 9.0, 0.1 M NaCl, 1 mM TCEP; crystals soaked with 5 mM MnCl2 and 25 mM UDP-glucose; space group C2, one tetramer in the asymmetric unit

B1: GtrB from Synechocystis sp. PCC6803 (enzyme, Synechocystis sp. PCC 6803, UniProt Q55487 1-318, looked up)
chain: MTIELSIVIPMYNEEDNLEHLFARLLEVLTPLKITYEIICVNDGSKDKTLKQLIDCYQSNRQIKIVNLSRNFGKEIALSAGIDYAQGNAVIPIDADLQDPPELIHELVDKWREGYDIVYATRRSRQGETWVKQFTAKMFYKVIGRMTEIKIPPNTGDFRLMDRKVVNAIKQLPERTRFMKGLFAWVGYRQTFVLFDREPRFQGQTKWNYWKLWNFALDGIFSFSLLPLKVWTYLGSIISLLSLAYASFLILKTITLGVDVPGYASLMVAILFLGGVQLISLGVIGEYLGRVYEEVKARPLYLVSDLWGLEYLPLEKLN
notes: GtrB, polyisoprenyl-phosphate glycosyltransferase, Synechocystis sp; PCC 6803, UniProt Q55487; open reading frame amplified from genomic DNA; a TEV protease cleavage site stands between the tag and the protein; Vector pMCSG7; A selenomethionine-substituted form was used for phasing only; In the deposited coordinates each protomer is divided into two chains; also called GtrBSyn; WT
stoichiometry N: 4

B2: GtrB from Synechocystis sp. PCC6803, point mutant F215A (enzyme, Synechocystis sp. PCC 6803, UniProt Q55487 1-318, looked up)
chain: MTIELSIVIPMYNEEDNLEHLFARLLEVLTPLKITYEIICVNDGSKDKTLKQLIDCYQSNRQIKIVNLSRNFGKEIALSAGIDYAQGNAVIPIDADLQDPPELIHELVDKWREGYDIVYATRRSRQGETWVKQFTAKMFYKVIGRMTEIKIPPNTGDFRLMDRKVVNAIKQLPERTRFMKGLFAWVGYRQTFVLFDREPRFQGQTKWNYWKLWNAALDGIFSFSLLPLKVWTYLGSIISLLSLAYASFLILKTITLGVDVPGYASLMVAILFLGGVQLISLGVIGEYLGRVYEEVKARPLYLVSDLWGLEYLPLEKLN
notes: GtrB, Synechocystis sp; PCC 6803, UniProt Q55487, same construct as m1 with the point mutation F215A (QuikChange); also called GtrB (F215A); source: E. coli, purified and crystallized in the same way as the wild type
binding result: binds
